Results as given in article PMC11352367 (Cells, 2024).

Biological target: the molecule itself
Assay: high-speed atomic force microscopy; α-actinin alone (50 nM) on bare mica, observation buffer, room temperature

B1: Rabbit skeletal muscle-derived α-actinin (natural protein)
chain: MNQIEPGVQYNYVYDEDEYMIQEEEWDRDLLLDPAWEKQQRKTFTAWCNSHLRKAGTQIENIEEDFRNGLKLMLLLEVISGERLPKPDRGKMRFHKIANVNKALDYIASKGVKLVSIGAEEIVDGNVKMTLGMIWTIILRFAIQDISVEETSAKEGLLLWCQRKTAPYRNVNIQNFHTSWKDGLGLCALIHRHRPDLIDYSKLNKDDPIGNINLAMEIAEKHLDIPKMLDAEDIVNTPKPDERAIMTYVSCFYHAFAGAEQAETAANRICKVLAVNQENERLMEEYERLASELLEWIRRTIPWLENRTPEKTMKAMQKKLEDFRDYRRKHKPPKVQEKCQLEINFNTLQTKLRISNRPAFMPSEGKMVSDAGAWQRLEQAEKGYEEWLLNEIRRLERLEHLAEKFRQKASTHETWAYGKEQILLQKDYESASLTEVRALLRKHEAFESDLAAHQDRVEQIAAIAQELNELDYHDAVNVNDRCQKICDQWDRLGTLTQKRREALERTEKLLETIDQLHLEFAKRAAPFNNWMEGAMEDLQDMFIVHSIEEIQSLITAHEQFKATLPEADGERQSIMAIQNEVEKVIQSYNIRISSSNPYSTVTMDELRAKWDKVKQLVPIRDQSLQEELARQHANERLRRQFAAQANAIGPWIQNKMEEIARSSIQITGALEDQMNQLKQYEHNIINYKNNIDKLEGDHQLIQEALVFDNKHTNYTMEHIRVGWELLLTTIARTINEVETQILTRDAKGITQEQMNEFRASFNHFDRRKNGLMDHEDFRACLISMGYDLGEAEFARIMTLVDPNGQGTVTFQSFIDFMTRETADTDTAEQVIASFRILASDKPYILAEELRRELPPDQAQYCIKRMPAYSGPGSVPGALDYTAFSSALYGESDL
In the case of B1, the “stoichiometry N” value is reported as 2.
